According to patent publication US20240262893A1:

Target: SARS-CoV-2 (Wuhan-Hu-1) wild-type (WT) spike protein carried on pseudotyped virus or on live wild-type virus (SARS-CoV-2 (Wuhan-Hu-1)), P0DTC2
Test: cell-based or functional assay

B1: R2D9 CDR3-knob (peptide)
peptide: ITHKTCPNGYNWFDRCCSWDGTCGDGCCSNRAWPSGNGRADSSIGETYGYEF
modifications: not checked
B1 was tested, and the pseudovirus neutralization, ng/mL (quantity not given) was 24.2 ng/mL.
